Source: patent US20250295734A1, “ANTICOAGULANT PROTEINS AND THEIR USE FOR TREATING DISEASES ASSOCIATED WITH THE ACTIVATION OF NEUTROPHILS” (BIOXODES, priority 2018, published 2025)

Experiments:
[1] = test system: neutrophils isolated from the bone marrow of femurs of mice; assay: In vitro NETosis assay; format: cell-based, mice (C57BL/6); details: PMNs primed with TNFα, activated with PAF
Procedure: Neutrophils were isolated from the bone marrow of femurs of mice (C57BL/6) as previously described (Hu 2012) using FR-1-coupled magnetic beads (anti-Ly6G Microbead Kit, Miltenyi Biotec).
Cells were harvested, centrifugated and incubated during 30 min with or without 2 ng/ml of TNFα in Hanks solution (Gibco). Neutrophils were seeded on slides coated with poly-L-lysine and incubated at 37° C. for 1 h in Hanks solution. Next, neutrophils were activated with or without 25 μM of platelet-activating factor (PAF)±Ir-CPI (0.65 or 2 μM) in Hanks solution (3 h at 37° C.). NET formation was assessed by immunofluorescence (fluorescent microscope from Leica) after fixation of neutrophils with 4% PAF (paraformaldehyde) and fluorescent labelling of citrullinated histones (H3 antibody) and nuclei (Hoechst). Processing and analysis of images was performed using the FIJI software.
Percentage of NETosis (median) was presented for 5 independent experiments. A Wilcoxon test was used for statistical analysis (ns: not significant; *p<0.05; **p<0.01; ***p<0.001). […]

[2] = test system: platelet accumulation and fibrin generation on the injured vessel walls; assay: Laser-induced vessel wall injury of cremaster muscle arterioles: platelet and fibrin detection; format: in vivo, mice (C57BL/6JRj); details: iv bolus 20.5 mg/kg + infusion 3.7 mg/kg/h
Procedure: Ir-CPI was administered intravenously as a bolus (20.5 mg/kg) immediately followed by a continuous infusion at a rate of 3.7 mg/kg/h (see Table 1 below). Due to fast distribution and elimination of Ir-CPI in the mice (t1/2α=14 min and t1/2β=236 min), the combination of the bolus and the infusion was chosen in order to maintain a constant Ir-CPI concentration into the blood.
Intravital video-microscopy of the cremaster muscle microcirculation was done as previously described (Falati et al., 2002).
Mice were anesthetized with intraperitoneal injection of ketamine (125 mg/kg), xylazine (12.5 mg/kg) and atropine (0.25 mg/kg) and were maintained at 37° C. on a thermo-controlled rodent blanket.
A tracheal tube was inserted into the trachea to facilitate breathing. A canula was inserted into a jugular vein for administration of pentobarbital. Pentobarbital (12 mg/kg) was administered in the jugular vein every 20-30 minutes to maintain the mice under anesthesia throughout the handling. The same jugular vein canula was used for the administration of the antibodies and the enzymatic substrate coupled to a fluorochrome that is necessary to follow the development of the thrombus (detection of fibrin and/or platelets and/or neutrophils and/or neutrophil elastase activity). A canula was also inserted in the second contralateral jugular vein for administration of the vehicle or the test item (Ir-CPI or NaCl).
After the scrotum was incised, the testicle and surrounding cremaster muscle were exteriorized onto an intravital microscopy tray. The cremaster muscle was continuously perfused with thermo-controlled (37° C.) and aerated (95% N2, 5% CO2) bicarbonate-buffered saline solution throughout the experiment.
Microvessel data were obtained using an Olympus AX61WI microscope with a 60×0.9-numerical aperture water immersion objective. The digital wide-field fluorescence microscopy system has previously been described (Falati et al., 2002). Digital images were captured with a Cooke Sensicam CCD camera in 640×480 format.
Vessel wall injury was induced with a Micropoint Laser System (Photonics Instruments) focused through the microscope objective, parfocal with the focal plane and aimed at the vessel wall, as previously described (Dubois et al., 2006). Typically, 1 or 2 pulses were required to induce vessel wall injury.
Multiple thrombi were studied in a single mouse, with new thrombi formed upstream of earlier thrombi to avoid any contribution from thrombi generated earlier in the animal under study. Laser-beam injuries were done at various time after the start of test-item administration (+5 min up to about 150 min after bolus administration of Ir-CPI or NaCl (control)).
Image analysis was performed using Slidebook 4.1 (Intelligent Imaging Innovations). Fluorescence data were captured digitally at up to 50 frames per second and analyzed as previously described (Falati et al., 2002). The kinetics of thrombus formation were analyzed by determining median fluorescence values over time in a minimum number of 20 thrombi.
In vivo detection of fibrin was performed using an Alexa Fluor 488-conjugated anti-fibrin antibody from Darbousset et al., 2014, administered intravenously at 0.5 μg/g of mouse. […]
Platelet accumulation and fibrin generation on the injured vessel walls were monitored using the following fluorescently labeled antibodies: DyLight649-labeled anti-GPIb antibody and Alexa Fluor 488-conjugated anti-fibrin antibody, respectively.

FXIa = FXIa (Homo sapiens, UniProt P03951); details: aPTT-based test, FXI deficient plasma; cited from earlier work
plasminogen = plasminogen (Homo sapiens, UniProt P00747); details: cited from earlier work
plasminogen, sequence (P00747 20-810 limits assumed, species assumed): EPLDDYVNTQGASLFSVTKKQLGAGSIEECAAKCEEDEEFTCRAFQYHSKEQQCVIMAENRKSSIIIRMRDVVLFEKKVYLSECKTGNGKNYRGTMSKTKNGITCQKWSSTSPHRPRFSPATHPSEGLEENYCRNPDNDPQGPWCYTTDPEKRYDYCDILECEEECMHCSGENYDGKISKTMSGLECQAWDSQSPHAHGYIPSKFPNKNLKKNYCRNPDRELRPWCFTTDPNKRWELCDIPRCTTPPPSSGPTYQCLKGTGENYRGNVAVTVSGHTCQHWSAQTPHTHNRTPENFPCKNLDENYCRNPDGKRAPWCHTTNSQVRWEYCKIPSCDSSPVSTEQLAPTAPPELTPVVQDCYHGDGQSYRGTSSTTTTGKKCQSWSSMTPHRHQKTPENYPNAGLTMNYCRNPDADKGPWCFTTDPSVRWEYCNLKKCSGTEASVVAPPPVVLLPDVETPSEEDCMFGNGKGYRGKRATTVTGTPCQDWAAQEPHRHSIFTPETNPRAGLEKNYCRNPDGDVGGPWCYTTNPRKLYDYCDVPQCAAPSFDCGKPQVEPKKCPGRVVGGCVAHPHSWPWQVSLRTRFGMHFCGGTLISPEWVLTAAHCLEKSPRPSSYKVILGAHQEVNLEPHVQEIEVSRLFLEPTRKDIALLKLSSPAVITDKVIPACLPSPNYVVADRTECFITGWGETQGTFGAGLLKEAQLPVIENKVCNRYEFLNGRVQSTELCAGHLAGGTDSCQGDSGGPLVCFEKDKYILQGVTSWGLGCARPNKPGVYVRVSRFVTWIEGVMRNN

FXIa, sequence (P03951 19-387 limits assumed): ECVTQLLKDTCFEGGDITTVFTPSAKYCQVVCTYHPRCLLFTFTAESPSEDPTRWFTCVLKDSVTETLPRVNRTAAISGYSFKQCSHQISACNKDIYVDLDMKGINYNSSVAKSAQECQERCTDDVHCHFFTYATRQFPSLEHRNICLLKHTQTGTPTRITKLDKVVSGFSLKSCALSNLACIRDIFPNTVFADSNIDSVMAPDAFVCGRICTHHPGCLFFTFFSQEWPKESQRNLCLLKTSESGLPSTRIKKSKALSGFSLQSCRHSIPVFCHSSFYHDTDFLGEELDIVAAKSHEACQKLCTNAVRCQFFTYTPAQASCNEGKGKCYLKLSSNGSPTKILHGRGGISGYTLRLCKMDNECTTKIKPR
FXIa, sequence (P03951 388-625 limits assumed): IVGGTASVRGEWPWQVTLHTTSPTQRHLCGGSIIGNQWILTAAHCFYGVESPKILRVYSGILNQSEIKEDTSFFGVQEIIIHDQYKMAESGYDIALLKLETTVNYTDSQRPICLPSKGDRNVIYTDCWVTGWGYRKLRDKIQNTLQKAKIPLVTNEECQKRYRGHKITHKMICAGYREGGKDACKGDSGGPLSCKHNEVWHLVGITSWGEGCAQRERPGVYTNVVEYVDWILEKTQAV

B1: Ir-CPI: Ixodes ricinus salivary gland polypeptide, contact phase inhibitor, MW=7660 Da; sequence SEQ ID NO: 1 or SEQ ID NO: 2 (protein)
chain: ANHKGRGRPAKCKLPPDDGPCRARIPSYYFDRKTKTCKEFMYGGCEGNENNFENITTCQEECRAKKV
[1]; Ir-CPI 0.65 μM, *p<0.05 vs TNFα and PAF
  percentage of NET formation: significant reduction
[1]; Ir-CPI 2 μM, ***p<0.001 vs TNFα and PAF
  percentage of NET formation: significant reduction
[2]; at T214 sec after laser injury
  maximal median of integrated platelet fluorescence: 121 783 AU
[2]; at T228 sec (end of measurement)
  median of integrated platelet fluorescence: 101 887 AU
[2]; every time point 0, 15, 30, 45, 75 and 90 min
  median of integrated fibrin fluorescence intensity compared to control mice: lower
[2]; first 3.8 min after laser injury
  fibrin generation compared to control mice: less important
[2]; short time period (228 sec)
  platelet accumulation compared to control mice: drastically decreased
FXIa
  FXIa clotting activity: inhibits
plasminogen
  binding to plasminogen: unable to bind
